Measured values as given in patent US20200171163A1 (Daiichi Sankyo, published 2020).
Where a chain is given by its changes, count along the chain named.

T1: EC3 deletion mutant of human CDH6 (human, UniProt P55285 54-790)
T1 construct: In p3×FLAG-CMV-9; also called EC3-deleted hCDH6
T1 sequence: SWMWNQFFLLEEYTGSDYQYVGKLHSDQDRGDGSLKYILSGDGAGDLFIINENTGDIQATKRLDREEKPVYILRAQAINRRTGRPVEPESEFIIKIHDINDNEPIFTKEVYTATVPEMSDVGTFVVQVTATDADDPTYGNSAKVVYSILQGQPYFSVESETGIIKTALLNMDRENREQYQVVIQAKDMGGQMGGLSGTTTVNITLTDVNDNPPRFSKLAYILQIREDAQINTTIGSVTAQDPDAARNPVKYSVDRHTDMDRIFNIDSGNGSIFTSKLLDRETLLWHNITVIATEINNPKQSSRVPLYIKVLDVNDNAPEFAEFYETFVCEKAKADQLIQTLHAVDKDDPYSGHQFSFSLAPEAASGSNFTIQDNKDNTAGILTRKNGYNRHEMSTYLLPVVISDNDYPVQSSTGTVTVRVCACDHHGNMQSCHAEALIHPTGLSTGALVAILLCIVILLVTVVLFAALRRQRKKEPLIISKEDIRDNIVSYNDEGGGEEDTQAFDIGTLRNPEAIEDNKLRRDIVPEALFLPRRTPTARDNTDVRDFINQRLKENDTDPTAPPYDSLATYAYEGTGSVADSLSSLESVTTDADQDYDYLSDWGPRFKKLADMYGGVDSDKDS

B1: rG055 antibody (antibody, V domains shown)
VH: EVQLQESGPGLVRPSQSLSLSCSVTDYSITSNYWGWIRRFPGNKMEWMGYITYSGYTSYNPSLQSRISITRDTSKNQFFLQLNSVTAEDTATYYCARSINHGGYSYVVDAWGPGASVTVSS
VL: DVQMTHSPSYLAASPGESVSISCKTSKNISNYLVWYQQKPGEAYKLLIYSGSTLQSGTPSRFSGSGSGTDFTLTIRSLEPEDFGLYFCQQYYEKPFTFGSGTKLEIKR
notes: Rat monoclonal purified from hybridoma; also called rat anti-CDH6 monoclonal antibody clone rG055
B2: rG061 antibody (antibody, V domains shown)
VH: EVQLQESGPGLVKPSQSLSLTCSVTGYSITTYYWGWIRKFPGNKMEWMGYISYSGRTSYNPSLKSRMSITRDASKNQFFLQLNSVTTDDTATYYCARSPINHGGYWYFDFWGPGTMVTVSS
VL: B1 VL with H6Q, T25A, S26T, N28S, V34A, L46V, F87S, F96L
notes: Rat monoclonal purified from hybridoma; also called rat anti-CDH6 monoclonal antibody clone rG061
B3: rG019 antibody (antibody, V domains shown)
VH: QVQLQQSGAELVKPGSSVKISCKASGYTFTRNFMHWIKQQPGNGLEWIGWIYCGDGETEYNQKFNGKATLTADRSSSTAYMELSRLTSEDSAVYFCARGVYGGFAGGYFDFWGQGVMVTVSS
VL: DIQMTQSPSLLSASVGDRVTLNCKASQNIYKNLAWYQQKLGEGPKLLIYDANTLQTGIPSRFSGSGSGSDFTLTISSLQPEDVATYFCQQYYSGWAFGGVTNLELKRA
notes: Rat monoclonal purified from hybridoma; also called rat anti-CDH6 monoclonal antibody clone rG019
B4: rG056 antibody (antibody, V domains shown)
VH: EVQLQESGPGLVKPSQSLSLTCSVTDYSITTYFWGWIRKFPGNKMEWMGYMSYRGGTSYNPSLKSRISITRDTSKNQFFLQLNSVTTEDTATYYCARCPNYGGHSLVFDYWGQGVMVTVSS
VL: DVQMTQSPSSLAASPGESVSISCRATKSIGIYLAWYQQKPGKTFKLLIYSGSTLQSGTPSRFSGSGSGTDFTLTIRSLEPEDFGLYFCQQFYENPFTFGSGTKLEIRR
notes: Rat monoclonal purified from hybridoma; also called rat anti-CDH6 monoclonal antibody clone rG056
B5: H02L02 antibody (antibody, human IgG1, kappa, V domains shown)
VH: EVQLVQSGAEVKKPGASVKVSCKASGYTFTRNFMHWVRQAPGQGLEWMGWIYPGDGETEYNQKFQGRVTITADRSTSTAYMELSSLRSEDTAVYFCARGVYGGFAGGYFDFWGQGTLVTVSS
VL: DIQMTQSPSSLSASVGDRVTITCKASQNIYKNLAWYQQKPGKAPKLLIYDANTLQTGVPSRFSGSGSGSDFTLTISSLQPEDFATYFCQQYYSGWAFGQGTKVEIKR
notes: Humanized IgG1/kappa (hH02 + hL02); also called humanized hG019 antibody H02L02
B6: H02L03 antibody (antibody, human IgG1, kappa, V domains shown)
VH: B5 VH
VL: B5 VL with P40L, K42E, A43G, S69T, F87Y
notes: Humanized IgG1/kappa (hH02 + hL03); also called humanized hG019 antibody H02L03
B7: H04L02 antibody (antibody, human IgG1, kappa, V domains shown)
VH: B5 VH with E1Q, V37I, N61A, I70L, F95Y
VL: B5 VL
notes: Humanized IgG1/kappa (hH04 + hL02); also called humanized hG019 antibody H04L02
B8: H01L02 antibody (antibody, human IgG1, kappa, V domains shown)
VH: B5 VH with N61A, R74T, F95Y
VL: B5 VL
notes: Humanized IgG1/kappa (hH01 + hL02); also called humanized hG019 antibody H01L02; labeled H01L02

Columns and labels:
[1] = biological target: T1, EC3 deletion mutant of human CDH6; test: flow cytometry; 293α cells transfected with EC3-deleted hCDH6 (open) vs untransfected control cells (shaded); anti-rat IgG-FITC
Experimental: The cells were cultured overnight under conditions of 37° C. and 5% CO₂, and thereafter, a cell suspension was prepared. […] Thereafter, the cells were suspended by the addition of each of the 4 rat anti-CDH6 monoclonal antibodies (clone Nos: rG019, rG055, rG056 and rG061), which had been prepared in Example 1)-7, or rat IgG control (R&D Systems, Inc.) (final concentration: 20 nM). The cells were left standing at 4° C. for 1 hour. The cells were washed twice with PBS supplemented with 5% FBS, and then suspended by the addition of Anti-Rat IgG (whole molecule)-FITC antibody produced in rabbit (Sigma-Aldrich Co. LLC) that had been 50-fold diluted with PBS supplemented with 5% FBS. The cells were left standing at 4° C. for 1 hour. The cells were washed twice with PBS supplemented with 5% FBS, followed by detection using a flow cytometer (Canto II; BD Biosciences). The data was analyzed using FlowJo (Tree Star, Inc.). In the histograms of FIGS. 2-1 to 2-6, the abscissa depicts FITC fluorescence intensity indicating the amount of the antibody bound, and the ordinate depicts cell count. […] Fluorescence intensity is enhanced when the antibody binds to full-length hCDH6 or each EC domain deletion mutant on the surface of cells. The rat IgG control binds to none of the transfected cells.

[2] = biological target: T1, EC3 deletion mutant of human CDH6; test: flow cytometry; 293α cells transfected with EC3-deleted hCDH6 (open) vs untransfected control cells (shaded); APC anti-human IgG
Experimental: The cells were cultured overnight under conditions of 37° C. and 5% CO₂, and thereafter, a cell suspension was prepared. […] Thereafter, the cells were suspended by the addition of each of the 4 humanized hG019 antibodies (clone Nos: H01L02, H02L02, H02L03 and H04L02), which had been prepared in Example 5)-5-3, or the anti-CDH6 antibody NOV0712, which had been prepared in Reference Example 1, or human IgG1 (Calbiochem) as a negative control. The cells were left standing at 4° C. for 1 hour. The cells were washed twice with PBS supplemented with 5% FBS, and then suspended by the addition of APC-anti-human IgG goat F(ab′)2 (Jackson ImmunoResearch Laboratories, Inc.) that had been 500-fold diluted with PBS supplemented with 5% FBS. The cells were left standing at 4° C. for 1 hour. The cells were washed twice with PBS supplemented with 5% FBS, followed by detection using a flow cytometer (Canto II; BD Biosciences). The data was analyzed using FlowJo (Tree Star, Inc.). In the histograms of FIGS. 7-1 to 7-6, the abscissa depicts APC fluorescence intensity indicating the amount of the antibody bound, and the ordinate depicts cell count. […] Fluorescence intensity is enhanced when the antibody binds to full-length hCDH6 or each EC domain deletion mutant on cell surface. The human IgG1 control binds to none of the transfected cells.

Binder | binding result [1] | binding result [2]
B1 | no binding (tested: 20 nM (single concentration)) | –
B2 | no binding (tested: 20 nM (single concentration)) | –
B3 | no binding (tested: 20 nM (single concentration)) | –
B4 | no binding (tested: 20 nM (single concentration)) | –
B5 | – | no binding (tested: not given (single concentration))
B6 | – | no binding (tested: not given (single concentration))
B7 | – | no binding (tested: not given (single concentration))
B8 | – | no binding (tested: not given (single concentration))
